Test results: patent US20030059461A1 (SIBTECH, published 2003)
Blank lines part the entries; values can stand above or below the binder they belong to.

How the values were obtained:
[1] = molecular target: T1, KDR/flk-1 receptor on 293/KDR or PAE/KDR cells (UniProt P35968 20-1356, limits assumed); test: Scatchard analysis on 293/KDR cells
T1 construct: whole, on cells; also called cellular KDR/flk-1 receptors

[2] = molecular target: T1, KDR/flk-1 receptor on 293/KDR or …; test: Scatchard analysis of 125I-labelled protein binding to 293/KDR cells
[3] = molecular target: T1, KDR/flk-1 receptor on 293/KDR or …; test: as described in Example 1.G.2 (binding to KDR/flk-1)
soluble KDR-Fc receptor = molecular target: T2, soluble KDR-Fc receptor (human, UniProt P35968 20-764, limits assumed); test: competition with 125I-VEGF165 for soluble KDR-Fc
T2 construct: extracellular domain; also called soluble, secreted extracellular domain of the KDR/flk-1 receptor fused to the Fc portion of human IgG; not shown: Fc portion of human IgG
T2 sequence (P35968 20-764 limits assumed): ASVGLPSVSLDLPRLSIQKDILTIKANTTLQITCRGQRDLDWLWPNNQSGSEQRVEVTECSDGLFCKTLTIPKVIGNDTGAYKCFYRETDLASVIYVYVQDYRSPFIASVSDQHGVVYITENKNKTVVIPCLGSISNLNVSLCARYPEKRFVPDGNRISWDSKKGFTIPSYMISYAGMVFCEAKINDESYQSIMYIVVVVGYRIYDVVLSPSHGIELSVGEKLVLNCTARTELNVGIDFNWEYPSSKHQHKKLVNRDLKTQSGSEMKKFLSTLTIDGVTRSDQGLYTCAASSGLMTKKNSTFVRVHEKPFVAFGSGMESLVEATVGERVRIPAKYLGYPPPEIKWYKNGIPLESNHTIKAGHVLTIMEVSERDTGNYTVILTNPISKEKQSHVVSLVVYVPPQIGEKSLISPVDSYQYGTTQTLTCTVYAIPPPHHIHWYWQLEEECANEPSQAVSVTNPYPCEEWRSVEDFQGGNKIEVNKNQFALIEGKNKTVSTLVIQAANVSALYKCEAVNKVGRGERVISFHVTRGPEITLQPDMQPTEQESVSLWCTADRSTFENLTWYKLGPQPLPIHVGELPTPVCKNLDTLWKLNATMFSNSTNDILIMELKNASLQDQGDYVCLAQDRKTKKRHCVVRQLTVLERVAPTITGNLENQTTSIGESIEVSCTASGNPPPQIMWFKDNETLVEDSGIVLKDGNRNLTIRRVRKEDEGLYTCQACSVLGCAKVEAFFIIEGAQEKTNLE

T1 sequence (P35968 20-1356 limits assumed): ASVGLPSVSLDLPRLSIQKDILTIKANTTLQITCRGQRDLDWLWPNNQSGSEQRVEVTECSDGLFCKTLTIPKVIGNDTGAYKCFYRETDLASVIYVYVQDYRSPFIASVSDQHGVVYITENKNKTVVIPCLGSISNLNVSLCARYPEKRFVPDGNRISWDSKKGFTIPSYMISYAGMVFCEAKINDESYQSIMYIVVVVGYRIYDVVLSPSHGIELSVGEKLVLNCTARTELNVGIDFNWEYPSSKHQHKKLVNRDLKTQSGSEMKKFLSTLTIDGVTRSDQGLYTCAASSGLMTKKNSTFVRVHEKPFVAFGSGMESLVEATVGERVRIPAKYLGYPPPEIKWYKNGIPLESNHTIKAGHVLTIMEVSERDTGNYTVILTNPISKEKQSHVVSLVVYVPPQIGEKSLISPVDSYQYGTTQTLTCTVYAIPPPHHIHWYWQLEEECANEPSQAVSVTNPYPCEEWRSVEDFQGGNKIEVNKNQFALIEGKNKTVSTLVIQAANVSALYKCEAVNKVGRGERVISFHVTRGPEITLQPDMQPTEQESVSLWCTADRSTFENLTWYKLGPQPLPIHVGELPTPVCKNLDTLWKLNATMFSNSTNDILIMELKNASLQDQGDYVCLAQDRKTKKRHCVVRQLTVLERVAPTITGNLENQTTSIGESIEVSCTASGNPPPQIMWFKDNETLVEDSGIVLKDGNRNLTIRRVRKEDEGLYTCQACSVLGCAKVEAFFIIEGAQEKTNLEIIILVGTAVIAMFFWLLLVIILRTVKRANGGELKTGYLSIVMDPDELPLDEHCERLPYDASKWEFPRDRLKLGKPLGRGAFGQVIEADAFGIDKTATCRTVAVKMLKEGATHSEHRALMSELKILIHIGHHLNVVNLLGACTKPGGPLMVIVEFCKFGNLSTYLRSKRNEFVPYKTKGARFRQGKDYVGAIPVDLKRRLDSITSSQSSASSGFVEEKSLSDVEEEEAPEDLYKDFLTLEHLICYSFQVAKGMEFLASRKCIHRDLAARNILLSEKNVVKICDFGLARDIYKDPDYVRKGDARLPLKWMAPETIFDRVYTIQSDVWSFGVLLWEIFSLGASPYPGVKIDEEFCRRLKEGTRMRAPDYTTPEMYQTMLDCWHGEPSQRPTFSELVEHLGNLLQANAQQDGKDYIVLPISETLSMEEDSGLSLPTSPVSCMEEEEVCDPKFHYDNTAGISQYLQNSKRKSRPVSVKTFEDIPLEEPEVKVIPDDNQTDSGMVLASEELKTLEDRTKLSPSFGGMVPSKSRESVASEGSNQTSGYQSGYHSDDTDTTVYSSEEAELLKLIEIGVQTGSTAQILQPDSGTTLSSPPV

fold lower affinity than VEGF165 [1]: ~10 fold
Kd [2]: 3.5 nM
B1: txFVEGF121 fusion protein (ligand, human, UniProt P15692-9 27-147, looked up, not shown: large carriers)
chain: APMAEGGGQNHHEVVKFMDVYQRSYCHPIETLVDIFQEYPDEIEYIFKPSCVPLMRCGGCCNDEGLECVPTEESNITMQIMRIKPHQGQHIGEMSFLQHNKCECRPKKDRARQEKCDKPRR
modifications: 125I label in the Scatchard experiment
notes: mature; also called txVEGF121

binding result [3]: binds
binding result (soluble KDR-Fc receptor): binds
B2: txFVEGF189 fusion protein (ligand, human, UniProt P15692-2 27-215, looked up, not shown: large carriers)
chain: APMAEGGGQNHHEVVKFMDVYQRSYCHPIETLVDIFQEYPDEIEYIFKPSCVPLMRCGGCCNDEGLECVPTEESNITMQIMRIKPHQGQHIGEMSFLQHNKCECRPKKDRARQEKKSVRGKGKGQKRKRKKSRYKSWSVPCGPCSERRKHLFVQDPQTCKCSCKNTDSRCKARQLELNERTCRCDKPRR
notes: mature; also called txVEGF189
